In patent US20200289663A1:

How the values were obtained:
[1] = molecular target: human recombinant protein HER2-ECD with his-tag (human) (UniProt P04626); experiment: ELISA on coated HER2-ECD
[2] = molecular target: human recombinant protein HER2-ECD with his-tag (human) (UniProt P04626); experiment: ELISA on coated HER2-ECD, average of three independent assays

RC48-VC-MMAF, sequence (VH): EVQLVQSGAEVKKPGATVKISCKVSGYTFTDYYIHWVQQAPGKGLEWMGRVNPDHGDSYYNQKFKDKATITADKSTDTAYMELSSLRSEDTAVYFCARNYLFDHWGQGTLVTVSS
RC48-VC-MMAF, sequence (VL): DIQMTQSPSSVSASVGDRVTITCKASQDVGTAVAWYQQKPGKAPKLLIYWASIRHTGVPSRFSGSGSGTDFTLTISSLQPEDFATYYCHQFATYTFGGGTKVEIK
RC48-mc-vc-pAB-MMAE, sequence (VH): as the sequence (VH) above
RC48-mc-vc-pAB-MMAE, sequence (VL): as the sequence (VL) above
humanized anti-HER2 monoclonal antibody RC48, sequence (VH): as the sequence (VH) above
humanized anti-HER2 monoclonal antibody RC48, sequence (VL): as the sequence (VL) above

Row | Substance | Binding affinity [1] [ng/mL] | Mole equivalent [1] | Kd [2] [nM]
1 | RC48-mc-vc-pAB-MMAE | 2.24 | 15.2 | –
2 | humanized anti-HER2 monoclonal antibody RC48 | – | – | 0.044
3 | RC48-VC-MMAF | 3.35 | 13.5 | –
4 | human-mouse chimeric anti-HER2 antibody cRC48 | – | – | 0.077
